# Experimental data: the Human Domainome abundance scans (Beltran et al. 2025)
# ± gives the uncertainty stated by the source.
# B1: V(D)J recombination-activating protein 2, residues 415 to 491; numbered along this chain, P55895 (parent)
# chain: YWITCCPTCDVDINTWVPFYSTELNKPAMIYCSHGDGHWVHAQCMDLAERTLIHLSAGSNKYYCNEHVEIARALHTP
# Variants of: B1
# Assay: abundance fitness (aPCA) (normalised: wild type 0, dead -1); higher = more abundant; growth selection in yeast, the domain comes from the species named
# Settings: Homo sapiens
row,Variant,abundance fitness
1,D36P,-0.011 ± 0.14
2,D36K,-0.441 ± 0.29
3,D36H,-0.214 ± 0.33
4,D36M,-0.107 ± 0.2
5,D36N,-0.211 ± 0.23
6,A42D,-0.762 ± 0.17
7,A42G,-0.115 ± 0.05
8,A42P,-0.717 ± 0.15
9,A71Q,0.044 ± 0.069
10,A71E,0.085 ± 0.072
11,A71P,-0.03 ± 0.079
12,A71I,-0.008 ± 0.1
13,A71H,-0.179 ± 0.12
14,A71G,-0.051 ± 0.05
15,W39Q,-0.176 ± 0.053
16,W39M,-0.072 ± 0.036
17,W39E,-0.148 ± 0.049
18,W39I,-0.278 ± 0.078
19,T51P,-0.203 ± 0.098
20,T51E,-0.016 ± 0.093
21,T51D,-0.042 ± 0.17

row,Variant,abundance fitness
1,T51A,-0.025 ± 0.045
2,T8E,0.058 ± 0.17
3,T8V,-0.196 ± 0.23
4,T8S,0.129 ± 0.24
5,W2I,-0.333 ± 0.26
6,W2K,-0.162 ± 0.13
7,W2A,-0.39 ± 0.07
8,L52Y,-0.318 ± 0.19
9,L52Q,-0.006 ± 0.084
10,L52W,-0.006 ± 0.092
11,A48K,-0.011 ± 0.076
12,A48E,0.013 ± 0.066
13,A48I,0.041 ± 0.11
14,A48H,-0.226 ± 0.16
15,D10W,0.045 ± 0.12
16,H75C,-0.155 ± 0.092
17,H75Y,-0.179 ± 0.1
18,H38N,-0.689 ± 0.42
19,A28N,0.078 ± 0.33
20,A28E,-0.172 ± 0.29
21,A28V,-0.155 ± 0.14

row,Variant,abundance fitness
1,A28M,-0.213 ± 0.28
2,A73Q,0.009 ± 0.14
3,C9R,-0.668 ± 0.18
4,C9F,-0.637 ± 0.26
5,M45I,-0.615 ± 0.098
6,M45H,0.058 ± 0.13
7,M45E,-0.265 ± 0.13
8,N65V,0.008 ± 0.047
9,D46V,0.046 ± 0.056
10,K61V,0.069 ± 0.19
11,K61S,-0.116 ± 0.13
12,K61L,0.158 ± 0.1
13,K61A,0.017 ± 0.047
14,I53D,-0.184 ± 0.25
15,I53A,0.154 ± 0.11
16,E49C,-0.201 ± 0.067
17,Y31M,0.004 ± 0.072
18,Y31L,0.005 ± 0.056
19,L47W,-0.611 ± 0.067
20,L47G,-0.458 ± 0.04
21,L47C,-0.081 ± 0.08

row,Variant,abundance fitness
1,C32F,-0.946 ± 0.3
2,C32W,-0.861 ± 0.15
3,C32S,-0.683 ± 0.13
4,C32D,-1.14 ± 0.45
5,I13W,-0.12 ± 0.23
6,I13T,-0.329 ± 0.22
7,P27S,-0.958 ± 0.34
8,P27D,-1.01 ± 0.41
9,E66N,-0.381 ± 0.21
10,E66S,-0.039 ± 0.074
11,E66A,-0.025 ± 0.064
12,P18A,-0.028 ± 0.25
13,S59W,-0.225 ± 0.071
14,Y20S,-0.513 ± 0.14
15,Y20V,-0.719 ± 0.29
16,Y20M,-0.383 ± 0.27
17,C44T,-0.556 ± 0.091
18,C44V,-1.11 ± 0.14
19,C44L,-0.806 ± 0.064
20,C44M,-1.15 ± 0.45
21,H34L,-0.073 ± 0.059
